Measurements as given in paper PMC7949124, “Metallo-β-lactamase domain-containing protein 2 is S-palmitoylated and exhibits acyl-CoA hydrolase activity” (The Journal of Biological Chemistry, 2020).

Substrate: CCCCCCCCCCCCCCCC(=O)SCCNC(=O)CCNC(=O)[C@H](O)C(C)(C)COP(=O)(O)OP(=O)(O)OC[C@H]1O[C@@H](n2cnc3c(N)ncnc32)[C@H](O)[C@@H]1OP(=O)(O)O
Test: radiometric acyl-CoA hydrolase assay, heptane extraction of [3H]-palmitate
Assay type: biochemical, Homo sapiens
Conditions: 30 °C, 10 min, 0.05% DDM, labelled compound ([3H] tracer diluted with unlabelled), fitted over 0-10 μM because of substrate inhibition, n = 4
Excerpt: radiometric acyl-CoA hydrolase assay, heptane extraction of [3H]-palmitate on MBLAC2

B1: MBLAC2 (Homo sapiens) (protein)
chain: MSALEWYAHKSLGDGIFWIQERFYESGNRANIWLVRGSEQDVVIDTGLGLRSLPEYLYSSGLLQDREAKEDAARRPLLAVATHVHFDHSGGLYQFDRVAVHHAEAEALARGDNFETVTWLSDSEVVRTPSPGWRARQFRVQAVQPTLILQDGDVINLGDRQLTVMHMPGHSRGSICLHDKDRKILFSGDVVYDGSLIDWLPYSRISDYVGTCERLIELVDRGLVEKVLPGHFNTFGAERLFRLASNYISKAGICHKVSTFAMRSLASLALRVTNSRTSP
notes: N-terminal hexahistidine tag, C-terminal FLAG; baculovirus/Sf9; zinc metalloenzyme; partly S-palmitoylated at Cys254
B1 was tested, and the Km was 1.9 ± 0.6 µM and the Vmax was 0.103 µmol/min/mg.

B2: MBLAC2 (Homo sapiens; C254A) (protein)
chain: MSALEWYAHKSLGDGIFWIQERFYESGNRANIWLVRGSEQDVVIDTGLGLRSLPEYLYSSGLLQDREAKEDAARRPLLAVATHVHFDHSGGLYQFDRVAVHHAEAEALARGDNFETVTWLSDSEVVRTPSPGWRARQFRVQAVQPTLILQDGDVINLGDRQLTVMHMPGHSRGSICLHDKDRKILFSGDVVYDGSLIDWLPYSRISDYVGTCERLIELVDRGLVEKVLPGHFNTFGAERLFRLASNYISKAGIAHKVSTFAMRSLASLALRVTNSRTSP
notes: as for B1
Protein B2 has a Km of 2.2 ± 0.7 µM and a Vmax of 0.0879 µmol/min/mg.
